Test results reported in paper PMC3878992.
Like-named read-outs stand apart in the source and are kept apart here.

What was measured:
[1] = biological target: eIF4G1 (Saccharomyces cerevisiae) (UniProt P39935); conditions: cited from earlier work
[2] = biological target: Cy5-eIF4E(A124C) (S. cerevisiae) (UniProt P07260); experiment: single-molecule FRET
[3] = biological target: Cy5-eIF4E(A124C) (S. cerevisiae) (UniProt P07260); experiment: single-molecule FRET; remark: listed apart in the source

Kd [2] [nM]	Kd [3] [nM]	Molecule	Kd [1] [nM]
–	–	eIF4E (from UniProt P07260)	< 15
20	–	full-length eIF4G1 (natural protein) MTDETAHPTQSASKQESAALKQTGDDQQESQQQRGYTNYNNGSNYTQKKPYNSNRPHQQRGGKFGPNRYNNRGNYNGGGSFRGGHMGANSSNVPWTGYYNNYPVYYQPQQMAAAGSAPANPIPVEEKSPVPTKIEITTKSGEHLDLKEQHKAKLQSQERSTVSPQPESKLKETSDSTSTSTPTPTPSTNDSKASSEENISEAEKTRRNFIEQVKLRKAALEKKRKEQLEGSSGNNNIPMKTTPENVEEKGSDKPEVTEKTKPAEEKSAEPEVKQETPAEEGEQGEKGQIKEESTPKVLTFAERLKLKKQQKEREEKTEGKENKEVPVQEETKSAIESAPVPPSEQVKEETEVAETEQSNIDESATTPAIPTKSDEAEAEVEAEAGDAGTKIGLEAEIETTTDETDDGTNTVSHILNVLKDATPIEDVFSFNYPEGIEGPDIKYKKEHVKYTYGPTFLLQFKDKLNVKADAEWVQSTASKIVIPPGMGRGNRSRDSGRFGNNSSRGHDFRNTSVRNMDDRANSRTSSKRRSKRMNDDRRSNRSYTSRRDRERGSYRNEEKREDDKPKEEVAPLVPSANRWVPKFKSKKTEKKLAPDGKTELLDKDEVERKMKSLLNKLTLEMFDAISSEILAIANISVWETNGETLKAVIEQIFLKACDEPHWSSMYAQLCGKVVKELNPDITDETNEGKTGPKLVLHYLVARCHAEFDKGWTDKLPTNEDGTPLEPEMMSEEYYAAASAKRRGLGLVRFIGFLYRLNLLTGKMMFECFRRLMKDLTDSPSEETLESVVELLNTVGEQFETDSFRTGQATLEGSQLLDSLFGILDNIIQTAKISSRIKFKLIDIKELRHDKNWNSDKKDNGPKTIQQIHEEEERQRQLKNNSRSNSRRTNNSSNRHSFRRDAPPASKDSFITTRTYSQRNSQRAPPPKEEPAAPTSTATNMFSALMGESDDEE	–
25	20	eIF4G1 eIF4E-binding domain (4EBD) flanked by additional eIF4G1 sequence (amino acids 348-513) (domain or fragment) EETEVAETEQSNIDESATTPAIPTKSDEAEAEVEAEAGDAGTKIGLEAEIETTTDETDDGTNTVSHILNVLKDATPIEDVFSFNYPEGIEGPDIKYKKEHVKYTYGPTFLLQFKDKLNVKADAEWVQSTASKIVIPPGMGRGNRSRDSGRFGNNSSRGHDFRNTSV	–
